Patent US20140315986

Assays:
[1] = target: IL-6 (mature human interleukin-6) (Homo sapiens) (UniProt P05231); experiment: filter
[2] = target: IL-6 (mature human interleukin-6) (Homo sapiens) (UniProt P05231); experiment: cell_activity; conditions: 2'-OMe at C3,G6,A16,A19,C20,C28, STAT3 gene reporter assay
[3] = target: T1, IL-6 (Macaca fascicularis) (UniProt P79341); experiment: filter; conditions: Bn-dU at 7,8,14,15,22,23,27,30; PE-dU at 9; Nap-dU at 12; 2'-OMe at C3,G6,A16,A19,C20,C28
T1 sequence: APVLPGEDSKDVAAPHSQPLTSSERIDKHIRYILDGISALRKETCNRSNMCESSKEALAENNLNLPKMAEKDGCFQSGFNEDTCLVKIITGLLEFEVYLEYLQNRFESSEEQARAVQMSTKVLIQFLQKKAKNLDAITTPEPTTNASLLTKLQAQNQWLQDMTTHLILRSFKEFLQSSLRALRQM

[4] = target: T1, IL-6 (Macaca fascicularis); experiment: cell_activity; conditions: Bn-dU at 7,8,14,15,22,23,27,30; PE-dU at 9; Nap-dU at 12; 2'-OMe at C3,G6,A16,A19,C20,C28; gene reporter assay

Sequence | Kd ([1]; all U are Nap-dU) | further results
GGCAGGUUUGGUAUUAACACGUUAAGUCGUGG [2573-20_15] |  | Kd ([1]; all U are Bn-dU): 1 nM
GGGGUUAUGUAGCGAGUGCGUAAGGCGGUGGGCGAGGG [2574-49_6] | 3.5 nM | 
GGGGUUAUGUAGCGAGUGCGUAAGGCGGUGGGCGAG [2574-49_8] | 1.2 nM | 
GGCAGGUUUGGUAUUAACACGUUAAGUCGUGGGGU [2573-20_12] |  | Kd ([1]; all U are Bn-dU): 1.4 nM
GGCAGGUUUGGUAUUAACACGUUAAGUCGUGG [2573-20_135] |  | IC50 ([2]; all U are Bn-dU): 0.24 nM
GGGGUUAUGUAGCGAGUGCGUAAGGCGGUGGGCGAGG [2574-49_7] | 2.6 nM | 
GGGGUUAUGUAGCGAGUGCGUAAGGCGGUG [2574-49_14] | 0.7 nM | 
GGGGUUAUGUAGCGAGUGCGUAAGGCGGUGGGCG [2574-49_10] | 1.9 nM | 
GGCAGGUUUGGUAUUAACACGUUAAGUCGUGGGGUC [2573-20_3] |  | Kd ([1]; all U are Bn-dU): 1.5 nM
GGCAGGUUUGGUGUGG [2573-20_324 G-quartet fragment] |  | Kd ([1]; G-G-C1-A-G-G1-Bn-Bn-Pe-G-G-Nap-C3-G-Bn-G-G (1=2'-OMe, C3=spacer), p263 states approximately 200 nM): 270 nM
GGUUAUGUAGCGAGUGCGUAAGGCGGUGGGCGAGGGA [2574-49_16] | 3.9 nM | 
GGCAGGUUUGGUAUUAACACGUUAAGUCGUGG [2573-20_136] |  | Kd [3]: 2 nM; IC50 [4]: 9.7 nM; IC50 ([2]; Bn-dU at 7,8,14,15,22,23,27,30, PE-dU at 9, Nap-dU at 12): 0.5 nM
UUAUGUAGCGAGUGCGUAAGGCGGUGGGCGAGGGA [2574-49_18] | 19 nM | 
GGGGUUAUGUAGCGAGUGCGUAAGGCGGUGGGCGAGGGA [2574-49_3] | 4.1 nM | 
GGCAGGUUUGGUAUUAACACGUUAAGUCGUGGG [2573-20_14] |  | Kd ([1]; all U are Bn-dU): 2.8 nM
GGCAGGUUUGGUGUGG [2573-20_324 Bn7 to MBn variant] |  | Kd ([1]; G-G-C1-A-G-G1-MBn-Bn-Pe-G-G-Nap-C3-G-Bn-G-G (1=2'-OMe, C3=spacer), 100-fold improvement over parent stated): 1 nM
GGGGUUAUGUAGCGAGUGCGUAAGGCGGUGGGCGA [2574-49_9] | 1.8 nM | 
GGGGUUAUGUAGCGAGUGCGUAAGGCGGUGGG [2574-49_12] | 1.1 nM | 
GATGTGAGTGTGTGACGAGUGGGCAGGUUUGGUAUUAACACGUUAAGUCGUGGGGUCGCACAGAGAAGAAACAAGACC [2573-20] |  | Kd ([1]; all U are Bn-dU (5-benzylcarboxamide-dU), SB17T-0.002 (125 mM NaCl, 5 mM KCl, 5 mM MgCl2), 37 C, ZORBAX capture): 3 nM
GGGUUAUGUAGCGAGUGCGUAAGGCGGUGGGCGAGGGA [2574-49_15] | 2.1 nM | 
GGGGUUAUGUAGCGAGUGCGUAAGGCGGUGGGC [2574-49_11] | 1.5 nM | 
GGCAGGUUUGGUAUUAACACGUUAAGUCGUGGGG [2573-20_13] |  | Kd ([1]; all U are Bn-dU): 1.9 nM
GGGGUUAUGUAGCGAGUGCGUAAGGCGGUGG [2574-49_13] | 1.1 nM | 
GUUAUGUAGCGAGUGCGUAAGGCGGUGGGCGAGGGA [2574-49_17] | 17 nM | 
GATGTGAGTGTGTGACGAGGGGGUUAUGUAGCGAGUGCGUAAGGCGGUGGGCGAGGGAUCACAGAGAAGAAACAAGACC [2574-49] |  | Kd ([1]; all U are Nap-dU (5-naphthylmethylcarboxamide-dU), SB17T-0.002 (125 mM NaCl, 5 mM KCl, 5 mM MgCl2), 37 C, ZORBAX capture): 2 nM
